From US20210388110A1 (published 2021)

molecular target: T1, soluble human GPC3 (human, UniProt P51654 25-563, limits assumed); assay: SPR (Biacore), soluble human GPC3
T1 construct: soluble human GPC3 as analyte; also called glypican 3
T1 sequence (P51654 other isoform, or with tags, fused parts or gaps limits assumed, form in doubt): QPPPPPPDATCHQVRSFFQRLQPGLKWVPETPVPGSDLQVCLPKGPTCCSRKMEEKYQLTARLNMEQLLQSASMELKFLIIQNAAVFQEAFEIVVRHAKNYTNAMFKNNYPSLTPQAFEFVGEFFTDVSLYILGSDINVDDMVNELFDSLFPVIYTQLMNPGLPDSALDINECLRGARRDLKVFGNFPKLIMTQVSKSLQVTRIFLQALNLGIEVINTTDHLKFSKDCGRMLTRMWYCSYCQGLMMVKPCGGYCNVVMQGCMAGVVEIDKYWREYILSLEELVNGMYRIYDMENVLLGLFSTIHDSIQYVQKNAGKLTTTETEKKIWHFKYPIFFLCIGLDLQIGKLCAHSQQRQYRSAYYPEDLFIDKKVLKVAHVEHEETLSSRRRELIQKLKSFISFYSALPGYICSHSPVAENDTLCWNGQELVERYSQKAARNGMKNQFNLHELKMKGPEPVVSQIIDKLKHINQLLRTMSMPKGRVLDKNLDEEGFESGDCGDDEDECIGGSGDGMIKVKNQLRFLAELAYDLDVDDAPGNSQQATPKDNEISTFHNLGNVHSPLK

| Kd | Binder |
| --- | --- |
| 0.67 nM | GCH025-G1dh/none-Hi-Kn010G3/L0204-k0 (antibody, human IgG1, kappa, single-arm (one Fab)) heavy: not shown EPKSSDKTHTCPPCPAPELLGGPSVFLFPPKPKDTLMISRTPEVTCVVVDVSHEDPEVKFNWYVDGVEVHNAKTKPREEQYNSTYRVVSVLTVLHQDWLNGKEYKCKVSNKALPAPIEKTISKAKGQPREPQVCTLPPSRDELTKNQVSLWCLVKGFYPSDIAVEWESNGQPENNYKTTPPVLDSDGSFFLYSKLTVDKSRWQQGNVFSCSVMHEALHNRYTQKSLSLSP light: DIVMTQSPLSLPVTPGEPASISCRSSQSPVHSNRNTYLHWYQQKPGQAPRLLIYKVSNRFRGVPDRFSGSGSGTDFTLKISRVEAEDVGVYYCGQGTQVPYTFGQGTKLEIKRTVAAPSVFIFPPSDEQLKSGTASVVCLLNNFYPREAKVQWKVDNALQSGNSQESVTEQDSKDSTYSLSSTLTLSKADYEKHKVYACEVTHQGLSSPVTKSFNRGEC |
| 4.89 nM | GCH042-G1dh/none-Hi-Kn010G3/L0000-k0 (antibody, human IgG1, kappa, single-arm (one Fab)) heavy: not shown EPKSSDKTHTCPPCPAPELLGGPSVFLFPPKPKDTLMISRTPEVTCVVVDVSHEDPEVKFNWYVDGVEVHNAKTKPREEQYNSTYRVVSVLTVLHQDWLNGKEYKCKVSNKALPAPIEKTISKAKGQPREPQVCTLPPSRDELTKNQVSLWCLVKGFYPSDIAVEWESNGQPENNYKTTPPVLDSDGSFFLYSKLTVDKSRWQQGNVFSCSVMHEALHNRYTQKSLSLSP light: DIVMTQSPLSLPVTPGEPASISCRSSQSLVHSNRNTYLHWYQQKPGQAPRLLIYKVSNRFSGVPDRFSGSGSGTDFTLKISRVEAEDVGVYYCGQGTQVPYTFGQGTKLEIKRTVAAPSVFIFPPSDEQLKSGTASVVCLLNNFYPREAKVQWKVDNALQSGNSQESVTEQDSKDSTYSLSSTLTLSKADYEKHKVYACEVTHQGLSSPVTKSFNRGEC |
| 4.94 nM | GCH035-G1dh/none-Hi-Kn010G3/L0000-k0 (antibody, human IgG1, kappa, single-arm (one Fab)) heavy: not shown EPKSSDKTHTCPPCPAPELLGGPSVFLFPPKPKDTLMISRTPEVTCVVVDVSHEDPEVKFNWYVDGVEVHNAKTKPREEQYNSTYRVVSVLTVLHQDWLNGKEYKCKVSNKALPAPIEKTISKAKGQPREPQVCTLPPSRDELTKNQVSLWCLVKGFYPSDIAVEWESNGQPENNYKTTPPVLDSDGSFFLYSKLTVDKSRWQQGNVFSCSVMHEALHNRYTQKSLSLSP light: DIVMTQSPLSLPVTPGEPASISCRSSQSLVHSNRNTYLHWYQQKPGQAPRLLIYKVSNRFSGVPDRFSGSGSGTDFTLKISRVEAEDVGVYYCGQGTQVPYTFGQGTKLEIKRTVAAPSVFIFPPSDEQLKSGTASVVCLLNNFYPREAKVQWKVDNALQSGNSQESVTEQDSKDSTYSLSSTLTLSKADYEKHKVYACEVTHQGLSSPVTKSFNRGEC |
| 3.74 nM | GCH043-G1dh/none-Hi-Kn010G3/L0000-k0 (antibody, human IgG1, kappa, single-arm (one Fab)) heavy: not shown EPKSSDKTHTCPPCPAPELLGGPSVFLFPPKPKDTLMISRTPEVTCVVVDVSHEDPEVKFNWYVDGVEVHNAKTKPREEQYNSTYRVVSVLTVLHQDWLNGKEYKCKVSNKALPAPIEKTISKAKGQPREPQVCTLPPSRDELTKNQVSLWCLVKGFYPSDIAVEWESNGQPENNYKTTPPVLDSDGSFFLYSKLTVDKSRWQQGNVFSCSVMHEALHNRYTQKSLSLSP light: DIVMTQSPLSLPVTPGEPASISCRSSQSLVHSNRNTYLHWYQQKPGQAPRLLIYKVSNRFSGVPDRFSGSGSGTDFTLKISRVEAEDVGVYYCGQGTQVPYTFGQGTKLEIKRTVAAPSVFIFPPSDEQLKSGTASVVCLLNNFYPREAKVQWKVDNALQSGNSQESVTEQDSKDSTYSLSSTLTLSKADYEKHKVYACEVTHQGLSSPVTKSFNRGEC |
| 4.95 nM | GCH039-G1dh/none-Hi-Kn010G3/L0000-k0 (antibody, human IgG1, kappa, single-arm (one Fab)) heavy: not shown EPKSSDKTHTCPPCPAPELLGGPSVFLFPPKPKDTLMISRTPEVTCVVVDVSHEDPEVKFNWYVDGVEVHNAKTKPREEQYNSTYRVVSVLTVLHQDWLNGKEYKCKVSNKALPAPIEKTISKAKGQPREPQVCTLPPSRDELTKNQVSLWCLVKGFYPSDIAVEWESNGQPENNYKTTPPVLDSDGSFFLYSKLTVDKSRWQQGNVFSCSVMHEALHNRYTQKSLSLSP light: DIVMTQSPLSLPVTPGEPASISCRSSQSLVHSNRNTYLHWYQQKPGQAPRLLIYKVSNRFSGVPDRFSGSGSGTDFTLKISRVEAEDVGVYYCGQGTQVPYTFGQGTKLEIKRTVAAPSVFIFPPSDEQLKSGTASVVCLLNNFYPREAKVQWKVDNALQSGNSQESVTEQDSKDSTYSLSSTLTLSKADYEKHKVYACEVTHQGLSSPVTKSFNRGEC |
| 1.08 nM | GCH054-G1dh/none-Hi-Kn010G3/L0201-k0 (antibody, human IgG1, kappa, single-arm (one Fab)) heavy: not shown EPKSSDKTHTCPPCPAPELLGGPSVFLFPPKPKDTLMISRTPEVTCVVVDVSHEDPEVKFNWYVDGVEVHNAKTKPREEQYNSTYRVVSVLTVLHQDWLNGKEYKCKVSNKALPAPIEKTISKAKGQPREPQVCTLPPSRDELTKNQVSLWCLVKGFYPSDIAVEWESNGQPENNYKTTPPVLDSDGSFFLYSKLTVDKSRWQQGNVFSCSVMHEALHNRYTQKSLSLSP light: DIVMTQSPLSLPVTPGEPASISCRSSQPPVHSNRNTYLHWYQQKPGQAPRLLIYKVSNRFSGVPDRFSGSGSGTDFTLKISRVEAEDVGVYYCGQGTQVPYTFGQGTKLEIKRTVAAPSVFIFPPSDEQLKSGTASVVCLLNNFYPREAKVQWKVDNALQSGNSQESVTEQDSKDSTYSLSSTLTLSKADYEKHKVYACEVTHQGLSSPVTKSFNRGEC |
| 4.63 nM | GCH045-G1dh/none-Hi-Kn010G3/L0000-k0 (antibody, human IgG1, kappa, single-arm (one Fab)) heavy: not shown EPKSSDKTHTCPPCPAPELLGGPSVFLFPPKPKDTLMISRTPEVTCVVVDVSHEDPEVKFNWYVDGVEVHNAKTKPREEQYNSTYRVVSVLTVLHQDWLNGKEYKCKVSNKALPAPIEKTISKAKGQPREPQVCTLPPSRDELTKNQVSLWCLVKGFYPSDIAVEWESNGQPENNYKTTPPVLDSDGSFFLYSKLTVDKSRWQQGNVFSCSVMHEALHNRYTQKSLSLSP light: DIVMTQSPLSLPVTPGEPASISCRSSQSLVHSNRNTYLHWYQQKPGQAPRLLIYKVSNRFSGVPDRFSGSGSGTDFTLKISRVEAEDVGVYYCGQGTQVPYTFGQGTKLEIKRTVAAPSVFIFPPSDEQLKSGTASVVCLLNNFYPREAKVQWKVDNALQSGNSQESVTEQDSKDSTYSLSSTLTLSKADYEKHKVYACEVTHQGLSSPVTKSFNRGEC |
| 5.01 nM | GCH029-G1dh/none-Hi-Kn010G3/L0000-k0 (antibody, human IgG1, kappa, single-arm (one Fab)) heavy: not shown EPKSSDKTHTCPPCPAPELLGGPSVFLFPPKPKDTLMISRTPEVTCVVVDVSHEDPEVKFNWYVDGVEVHNAKTKPREEQYNSTYRVVSVLTVLHQDWLNGKEYKCKVSNKALPAPIEKTISKAKGQPREPQVCTLPPSRDELTKNQVSLWCLVKGFYPSDIAVEWESNGQPENNYKTTPPVLDSDGSFFLYSKLTVDKSRWQQGNVFSCSVMHEALHNRYTQKSLSLSP light: DIVMTQSPLSLPVTPGEPASISCRSSQSLVHSNRNTYLHWYQQKPGQAPRLLIYKVSNRFSGVPDRFSGSGSGTDFTLKISRVEAEDVGVYYCGQGTQVPYTFGQGTKLEIKRTVAAPSVFIFPPSDEQLKSGTASVVCLLNNFYPREAKVQWKVDNALQSGNSQESVTEQDSKDSTYSLSSTLTLSKADYEKHKVYACEVTHQGLSSPVTKSFNRGEC |
| 4.05 nM | GCH053-G1dh/none-Hi-Kn010G3/L0000-k0 (antibody, human IgG1, kappa, single-arm (one Fab)) heavy: not shown EPKSSDKTHTCPPCPAPELLGGPSVFLFPPKPKDTLMISRTPEVTCVVVDVSHEDPEVKFNWYVDGVEVHNAKTKPREEQYNSTYRVVSVLTVLHQDWLNGKEYKCKVSNKALPAPIEKTISKAKGQPREPQVCTLPPSRDELTKNQVSLWCLVKGFYPSDIAVEWESNGQPENNYKTTPPVLDSDGSFFLYSKLTVDKSRWQQGNVFSCSVMHEALHNRYTQKSLSLSP light: DIVMTQSPLSLPVTPGEPASISCRSSQSLVHSNRNTYLHWYQQKPGQAPRLLIYKVSNRFSGVPDRFSGSGSGTDFTLKISRVEAEDVGVYYCGQGTQVPYTFGQGTKLEIKRTVAAPSVFIFPPSDEQLKSGTASVVCLLNNFYPREAKVQWKVDNALQSGNSQESVTEQDSKDSTYSLSSTLTLSKADYEKHKVYACEVTHQGLSSPVTKSFNRGEC |
| 1.18 nM | GCH054-G1dh/none-Hi-Kn010G3/L0200-k0 (antibody, human IgG1, kappa, single-arm (one Fab)) heavy: not shown EPKSSDKTHTCPPCPAPELLGGPSVFLFPPKPKDTLMISRTPEVTCVVVDVSHEDPEVKFNWYVDGVEVHNAKTKPREEQYNSTYRVVSVLTVLHQDWLNGKEYKCKVSNKALPAPIEKTISKAKGQPREPQVCTLPPSRDELTKNQVSLWCLVKGFYPSDIAVEWESNGQPENNYKTTPPVLDSDGSFFLYSKLTVDKSRWQQGNVFSCSVMHEALHNRYTQKSLSLSP light: DIVMTQSPLSLPVTPGEPASISCRPSQSPVHSNRNTYLHWYQQKPGQAPRLLIYKVSNRFSGVPDRFSGSGSGTDFTLKISRVEAEDVGVYYCGQGTQVPYTFGQGTKLEIKRTVAAPSVFIFPPSDEQLKSGTASVVCLLNNFYPREAKVQWKVDNALQSGNSQESVTEQDSKDSTYSLSSTLTLSKADYEKHKVYACEVTHQGLSSPVTKSFNRGEC |
| 4.8 nM | GCH040-G1dh/none-Hi-Kn010G3/L0000-k0 (antibody, human IgG1, kappa, single-arm (one Fab)) heavy: not shown EPKSSDKTHTCPPCPAPELLGGPSVFLFPPKPKDTLMISRTPEVTCVVVDVSHEDPEVKFNWYVDGVEVHNAKTKPREEQYNSTYRVVSVLTVLHQDWLNGKEYKCKVSNKALPAPIEKTISKAKGQPREPQVCTLPPSRDELTKNQVSLWCLVKGFYPSDIAVEWESNGQPENNYKTTPPVLDSDGSFFLYSKLTVDKSRWQQGNVFSCSVMHEALHNRYTQKSLSLSP light: DIVMTQSPLSLPVTPGEPASISCRSSQSLVHSNRNTYLHWYQQKPGQAPRLLIYKVSNRFSGVPDRFSGSGSGTDFTLKISRVEAEDVGVYYCGQGTQVPYTFGQGTKLEIKRTVAAPSVFIFPPSDEQLKSGTASVVCLLNNFYPREAKVQWKVDNALQSGNSQESVTEQDSKDSTYSLSSTLTLSKADYEKHKVYACEVTHQGLSSPVTKSFNRGEC |
| 3.83 nM | GCH027-G1dh/none-Hi-Kn010G3/L0000-k0 (antibody, human IgG1, kappa, single-arm (one Fab)) heavy: not shown EPKSSDKTHTCPPCPAPELLGGPSVFLFPPKPKDTLMISRTPEVTCVVVDVSHEDPEVKFNWYVDGVEVHNAKTKPREEQYNSTYRVVSVLTVLHQDWLNGKEYKCKVSNKALPAPIEKTISKAKGQPREPQVCTLPPSRDELTKNQVSLWCLVKGFYPSDIAVEWESNGQPENNYKTTPPVLDSDGSFFLYSKLTVDKSRWQQGNVFSCSVMHEALHNRYTQKSLSLSP light: DIVMTQSPLSLPVTPGEPASISCRSSQSLVHSNRNTYLHWYQQKPGQAPRLLIYKVSNRFSGVPDRFSGSGSGTDFTLKISRVEAEDVGVYYCGQGTQVPYTFGQGTKLEIKRTVAAPSVFIFPPSDEQLKSGTASVVCLLNNFYPREAKVQWKVDNALQSGNSQESVTEQDSKDSTYSLSSTLTLSKADYEKHKVYACEVTHQGLSSPVTKSFNRGEC |
| 2.48 nM | GCH054-G1dh/none-Hi-Kn010G3/L0203-k0 (antibody, human IgG1, kappa, single-arm (one Fab)) heavy: not shown EPKSSDKTHTCPPCPAPELLGGPSVFLFPPKPKDTLMISRTPEVTCVVVDVSHEDPEVKFNWYVDGVEVHNAKTKPREEQYNSTYRVVSVLTVLHQDWLNGKEYKCKVSNKALPAPIEKTISKAKGQPREPQVCTLPPSRDELTKNQVSLWCLVKGFYPSDIAVEWESNGQPENNYKTTPPVLDSDGSFFLYSKLTVDKSRWQQGNVFSCSVMHEALHNRYTQKSLSLSP light: DIVMTQSPLSLPVTPGEPASISCRSSQSPVHSNRNTYIHWYQQKPGQAPRLLIYKVSNRFSGVPDRFSGSGSGTDFTLKISRVEAEDVGVYYCGQGTQVPYTFGQGTKLEIKRTVAAPSVFIFPPSDEQLKSGTASVVCLLNNFYPREAKVQWKVDNALQSGNSQESVTEQDSKDSTYSLSSTLTLSKADYEKHKVYACEVTHQGLSSPVTKSFNRGEC |
